The target of test [1] is T1, human PD-L1 (human, UniProt Q9NZQ7 19-290).
T1 construct: whole, on cells; also called CD274; B7-H1
Nature of the test: flow cytometry on CHO-K1/hPD-L1 cells. As to the method:
(§1) The cells were incubated at 4° C. for 1 h away from light. […] Then, the cells in each well were then rinsed twice with 200 μL of pre-cooled FACS buffer and centrifuged at 500 g at 4° C. for 5 min, and then the supernatant was discarded. Finally, a pre-cooled FACS buffer was added at 200 μL/well to resuspend the cells.
A general note: A flow cytometer gives signals particle by particle.

Test [2] deals with T2, recombinant human BCMA-ECD-Fc fusion protein (ACRO Biosystems, #BC7-H82F0), biotinylated (human, UniProt Q02223 1-54, biotinylated with EZ-Link Sulfo-NHS-LC-Biotin (sites not given)).
T2 construct: extracellular domain; Bought protein; also called biotinylated BCMA
T2 sequence (looked up): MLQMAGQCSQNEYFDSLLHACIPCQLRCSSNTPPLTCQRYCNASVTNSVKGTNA
Nature of the test: BLI (Octet Red96e), biotinylated BCMA-ECD-Fc on SA sensor, binding protein 10-2.5 nM in solution, 1:1 global fitting. The protocol: In this example, the binding kinetics between the BCMA binding protein and BCMA were analyzed by the Biolayer Interferometry (BLI) technique using an Octet molecular interaction analyzer (ForteBio, Octet Red96e).
Two columns of SA sensors (8 sensors in each column; with the sensors in the first column referred to as the reference SA sensor and the sensors in the second column referred to as the test SA sensor) were firstly equilibrated in the equilibration buffer for 10 min. Then, the biotinylated BCMA were captured by test SA sensors with a capture height of 0.2 nm, and the reference SA sensors were immersed in the buffer for 30 s. The two arrays of sensors were combined with the test BCMA-binding protein at concentrations obtained by a two-fold dilution from 10 nM to 2.5 nM and a concentration of 0 nM. The sensors were combined with the test proteins for 180 s and then dissociated for 800 s.
When data analysis was performed using Octet Data Analysis software (Fortebio, version 11.0), the reference signals were subtracted by a double reference mode; the data were fitted by a “1:1 Global fitting” method, and the kinetic parameters of the binding of the antigen to the antigen-binding protein were calculated to obtain kₒₙ (1/Ms) values, kdis (1/s) values and KD (M) values.

Test [3] deals with T3, human CTLA4 (human, UniProt P16410 36-223).
T3 construct: whole, on cells; also called CD152; CHO-K1/hCTLA4
T3 sequence (P16410 36-223): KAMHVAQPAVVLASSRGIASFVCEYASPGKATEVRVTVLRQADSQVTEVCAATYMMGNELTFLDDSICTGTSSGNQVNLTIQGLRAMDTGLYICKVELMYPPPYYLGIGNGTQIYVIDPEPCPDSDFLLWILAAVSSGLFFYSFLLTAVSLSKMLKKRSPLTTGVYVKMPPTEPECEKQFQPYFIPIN
Nature of the test: flow cytometry on CHO-K1/hCTLA4 cells. The protocol: as §1

Test [4] has as its target T4, human 4-1BB (human, UniProt Q07011 24-255).
T4 construct: whole, on cells; also called CD137; TNFRSF9
Put plainly: flow cytometry on CHO-K1/hu 4-1BB cells. As to the method: Specifically, the cells were digested and resuspended in a complete medium, and the cell density was adjusted to 2×10⁶ cells/mL. […] The cells were incubated at 4° C. for 1 h away from light. […] Then, the cells in each well were then rinsed twice with 200 μL of pre-cooled FACS buffer and centrifuged at 500 g at 4° C. for 5 min, and then the supernatant was discarded. Finally, a pre-cooled FACS buffer was added at 200 μL/well to resuspend the cells.

Usually Kd stands for the concentration at which binding is half-saturated. For orientation: koff means a measure of how fast the partners let go of each other. The kon is the rate constant with which the complex forms.

T1 sequence (Q9NZQ7 19-290): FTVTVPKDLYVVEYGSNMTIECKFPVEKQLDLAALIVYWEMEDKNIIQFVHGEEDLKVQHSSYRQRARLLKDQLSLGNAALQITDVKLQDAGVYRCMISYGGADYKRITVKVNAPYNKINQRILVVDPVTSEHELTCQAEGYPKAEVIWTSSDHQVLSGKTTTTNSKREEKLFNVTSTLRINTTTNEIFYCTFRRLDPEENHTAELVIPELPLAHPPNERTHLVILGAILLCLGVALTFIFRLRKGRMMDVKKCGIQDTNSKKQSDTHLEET
T4 sequence (Q07011 24-255): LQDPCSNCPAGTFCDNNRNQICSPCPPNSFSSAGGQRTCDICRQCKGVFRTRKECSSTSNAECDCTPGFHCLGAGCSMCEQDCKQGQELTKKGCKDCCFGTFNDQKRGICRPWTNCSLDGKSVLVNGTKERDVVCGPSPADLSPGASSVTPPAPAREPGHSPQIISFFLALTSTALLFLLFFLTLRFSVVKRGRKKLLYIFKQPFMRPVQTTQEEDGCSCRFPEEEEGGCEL

B1: PR004268, PD-L1×4-1BB bispecific binding protein with the VH-IgG structure (structure 4) (bispecific antibody)
light: DIQMTQSPSTLSASVGDRVTVTCRASQSIYIWLAWYQQKPGKAPNLLIYKASSLETGVPSRFSGSGSGTEFTLTISSLQPDDFATYYCQQYYGSSRTFGQGTKVEIKRTVAAPSVFIFPPSDEQLKSGTASVVCLLNNFYPREAKVQWKVDNALQSGNSQESVTEQDSKDSTYSLSSTLTLSKADYEKHKVYACEVTHQGLSSPVTKSFNRGEC
heavy: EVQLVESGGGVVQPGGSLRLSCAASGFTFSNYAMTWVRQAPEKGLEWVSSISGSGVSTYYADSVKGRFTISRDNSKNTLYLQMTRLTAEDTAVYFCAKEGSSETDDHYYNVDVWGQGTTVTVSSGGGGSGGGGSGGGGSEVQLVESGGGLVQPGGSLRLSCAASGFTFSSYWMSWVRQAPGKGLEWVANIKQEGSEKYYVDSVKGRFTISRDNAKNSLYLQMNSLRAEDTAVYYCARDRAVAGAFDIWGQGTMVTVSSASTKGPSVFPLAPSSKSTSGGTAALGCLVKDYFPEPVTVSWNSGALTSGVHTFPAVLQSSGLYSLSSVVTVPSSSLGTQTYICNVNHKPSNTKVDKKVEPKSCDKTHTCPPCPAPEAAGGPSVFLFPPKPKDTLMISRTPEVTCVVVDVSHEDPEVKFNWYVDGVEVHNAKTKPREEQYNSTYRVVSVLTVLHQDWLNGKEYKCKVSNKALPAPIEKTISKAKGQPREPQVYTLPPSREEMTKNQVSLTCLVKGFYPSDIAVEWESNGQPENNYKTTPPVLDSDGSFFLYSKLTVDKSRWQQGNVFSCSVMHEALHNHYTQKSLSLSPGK
notes: 4-1BB VH (PR001760) at the N-terminus of the heavy chain of PD-L1 IgG (PR000265); linker GS_15; human IgG1 (LALA)
Turning to B1, the binding result in test [1] is “binds”.

B2: Anti-BCMA heavy-chain antibody PR001046_R2_4G10 (antibody, human IgG1, V domains shown)
VH: EVQLVETGGGLIQPGGSLRLSCAASGFTVSDSYMTWVRQAPGKGLEWVSVIFSGGRTYYSDSVKGRFTISRDNAKNTLYLQMNSLRAEDTALYYCARRNYDDTRGTDVFDIWGQGTMVTVSS
notes: Fully human heavy-chain-only antibody (HCAb), bivalent, no light chain; also called PR004433
With B2, in test [2], the Kd was 0.0792 nM, the koff turned out to be 7.16e-05 s⁻¹ and the kon came out at 904000 M⁻¹ s⁻¹.

B3: PR005744, BCMA×BCMA bispecific binding protein with the Fab-HCAb structure (structure 1) (bispecific antibody, human IgG1, kappa)
chain 1: QVQLVESGGGVVQPGRSLRLSCAATGFTFSSYGMYWVRQAPGKGLEWVAAIWNDGSNNYYADSVKGRFTISRDDSKNTLNLQMNSLRAEDTAMYYCARDRLPMASLRYFDWLGVMDAWGQGTSVTVSSASTKGPSVFPLAPSSKSTSGGTAALGCLVKDYFPEPVTVSWNSGALTSGVHTFPAVLQSSGLYSLSSVVTVPSSSLGTQTYICNVNHKPSNTKVDKKVEPKSC
chain 2: not shown
notes: no first linker; human IgG1 hinge and Fc
With B3, in test [2], the Kd is 0.0279 nM, the koff worked out at 4.87e-05 s⁻¹ and the kon came to 1.75e+06 M⁻¹ s⁻¹.

B4: Anti-CTLA4 heavy-chain antibody CL5v3 (antibody, human IgG1, V domains shown)
VH: EVQLVESGGGLIQPGGSLRLSCAVSGFTVSKNYMSWVRQAPGKGLEWVSVVYSGGSKTYADSVKGRFTISRDNSKNTLYLQMNSLRAEDTAVYYCARAVPHSPSSFDIWGQGTMVTVSS
notes: Fully human heavy-chain-only antibody (HCAb), no light chain; also called PR000184
B4: the binding result in test [3] was “binds”.

B5: PR000701, PD-L1×4-1BB bispecific binding protein with the FIT-Ig structure (structure 5) (bispecific antibody, human IgG4 S228P, kappa)
chain 1: not shown
chain 2: EVQLVESGGGLVQPGGSLRLSCAASGFTFSSYWMSWVRQAPGKGLEWVANIKQEGSEKYYVDSVKGRFTISRDNAKNSLYLQMNSLRAEDTAVYYCARDRAVAGAFDIWGQGTMVTVSSASTKGPSVFPLAPSSKSTSGGTAALGCLVKDYFPEPVTVSWNSGALTSGVHTFPAVLQSSGLYSLSSVVTVPSSSLGTQTYICNVNHKPSNTKVDKKVEPKSC
light: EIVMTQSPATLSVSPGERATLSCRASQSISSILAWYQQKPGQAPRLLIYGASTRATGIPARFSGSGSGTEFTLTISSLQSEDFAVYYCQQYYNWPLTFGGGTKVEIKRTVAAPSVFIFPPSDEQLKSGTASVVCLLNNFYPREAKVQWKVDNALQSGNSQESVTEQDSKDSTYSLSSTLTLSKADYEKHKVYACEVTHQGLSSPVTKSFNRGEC
notes: FIT-Ig, symmetric tetravalent, three different chains; PD-L1 Fab of PR000265, 4-1BB Fab of PR000197 close to Fc; human IgG4
With B5, the binding result in test [1] and in test [4] was “binds” each time.
